Source: patent US20220296727A1, “Immunoconjugate” (DendroCyte BioTech Pty Ltd, priority 2019, published 2022)
Entries after “also recorded” stand apart in the source; their conditions may differ.

Tests used:
[1] = system: monocyte-derived dendritic cells (MoDC); test: Monocyte-derived dendritic cell (MoDC) toxicity assay; assay type: cell-based, human; details: 200 pmol, 72 hours
Description: PBMC were incubated in complete RPMI media with or without DCR-2-PBD (200 pmol). After 12 hours, washed cells were incubated for a further 12 hours with or without LPS then phenotyped for the expression of activation markers on DC populations. MoDC were derived from CD14+ monocytes as described previously (Fromm et al. J Leukoc Biol. 2020; 107(2):323-339). DCR-2-PBD or isotype-PBD (200 pmol) were added for 72 hours prior to enumeration of live cells by flow cytometry.

T cells = test: Mixed leucocyte reaction; assay type: cell-based, human; details: 200 pmol, 24 hours pre-incubation of stimulators, day 5
Description: DCR-2PBD's impact on antigen presentation was assessed by incubating DCR-2PBD or isotope-PBD with whole PBMC for 24 hours then washing, afterwards adding allogenic CFSE labeled T cells (naive CD4, magnetically separated) and measuring T cell division via reduction in CFSE expression. In more detail, T cells were depleted from PBMC by magnetic selection using an AutoMACS Pro with anti-CD3 mAb (HIT3a, Biolegend) with greater than 90% depletion in all samples. The CD3-depleted PBMC were incubated in complete RPMI media with DCR-2-PBD (200 pmol), isotype-PBD (200 pmol) or PBS for 24 hours. After washing to remove unbound ADC, the CD3-depleted PBMC were used to stimulate allogeneic CFSE labelled naive CD4+ T cells which had been prepared using a RosetteSep Kit (Stem Cell Technologies 17555). On day 5 the proliferation of T cells, identified using anti-CD3 AF700 (SP34-2), was assessed by CFSE reduction using flow cytometry. The results of the DCR-2-PBD and isotype-PBD groups were normalised to the PBS control group. […]
T cells were depleted from PBMC by magnetic selection using an AutoMACS Pro with anti-CD3 mAb (HIT3a, Biolegend) with greater than 90% depletion in all samples. […] On day 5 the proliferation of T cells, identified using anti-CD3 AF700 (SP34-2), was assessed by CFSE reduction using flow cytometry. […]

[2] = system: HSPC colony forming units; test: Colony forming unit toxicity assay, cord blood HSPC; assay type: cell-based, human
Description: CFU colonies were plated at 2×10^4 cells/well in semi-solid methylcellulose medium (MethoCult Classic, Stemcell Technologies) in a 24 well plate (Corning, N.Y., USA), were cultured at 37° C. in 5% CO2 for 14 days and counted via microscopy. Whole cord blood PBMC was used. CD34^+ progenitors were continuously exposed to multiple concentrations of DCR-2 with equal concentrations of a secondary goat anti mouse antibody conjugated to PBD dimer. As a control, only the secondary PBD dimer conjugated antibody was used as above.
(§1) CB cells, plated at 2×10^4 cells/well in semi-solid methylcellulose medium (MethoCult Classic, Stemcell Technologies) in a 24 well plate (Corning, N.Y., USA), were cultured at 37° C. in 5% CO2 for 14 days when colony forming units (CFU) were scored. DCR-2-PBD or isotype-PBD was added to each well for continuous exposure. Three CB samples were tested with duplicate wells performed in each experiment.

[3] = system: CD300f- lymphoma cell line Mino; test: Bystander killing assay; assay type: cell-based
Description: (§2) Kinetic analysis was performed as above.
AML surface targets, including CD300f, can be heterogeneously expressed within AML cases and we considered bystander killing advantageous for an effective ADC. To determine whether DCR-2PBD effects cells not expressing CD300f, we investigated bystander killing by comparing the viability of the CD300f− lymphoma cell line Mino cultured on its own, with Mino cultured mixed with HL-60 in the presence of DCR-2-PBD in mixtures of 50% HL-60/50% Mino, and 25% HL-60/75% Mino. Cells were incubated for 96 hours with various concentrations of DCR-2PBD (FIG. 11). […] The reduction in the Mino cells when combined with HL-60 confirm the ability of DCR-2-PBD to generate bystander killing.

HL-60 cell line = test: Exposure time (kinetic) cytotoxicity on HL-60; assay type: cell-based
Description: as §2
The exposure time required for DCR-2-PBD to cause cytotoxicity on the HL-60 cell line was assessed and the results are shown in FIG. 10. The viability of HL-60 cells was reduced to less than 10% within 5 hours of exposure to DCR-2PBD. At 12 hours, greater than 98% of HL-60 proliferation was inhibited while at 24 and 96 hours inhibition was greater than 99%.

HEL = test: Cytotoxicity assay on HEL erythroleukemic cell line; assay type: cell-based
Description: as §2
DCR-2 and an isotype control mAb were conjugated to a PBD dimer toxin, to assess potential cytotoxicity. The cytotoxicity of DCR-2-PBD and the isotype-PBD were tested against CD300f+ and CD300f− cell lines and the results are shown in FIG. 6 and Table 2.

primary AML = test: Colony forming unit assay, primary AML samples; assay type: cell-based, human
Description: as §1
Two primary AML samples were tested: CRGH1 with low CD300f expression (MFI ratio of 2.6) and CRGH9 with a high CD300f expression (MFI 109.9) (FIG. 9).

primary AML cells = test: Primary AML xenograft in NSG mice; assay type: in vivo, mouse; details: single dose 300 ug/kg
Description: For primary AML xenografts, NSG mice were irradiated with 150cGy 24 hours before 8×10^6 AML cells from CRGH11 (sample 10 Table S1) were injected iv. Once engraftment was established (>1% human CD45 positive events in PB), mice were given DCR-2-PBD or isotype-PBD. Mice were euthanised 6 days later and the BM was harvested for enumeration and surface marker analysis by flow cytometry.

B1: DCR-2PBD: anti-CD300f mAb DCR-2 conjugated to pyrrolobenzodiazepine dimer via Cathepsin B-cleavable linker MA-PEG4-VA-PBD; drug to antibody ratio 3.3 (conjugate)
VH: MESGGGLVQPGGPLKLSCAASGFGFSGSWMSWVRQAPGKGLEWIGQINPDSSTINYTPSLKDKFIISRDNAKNTLYLQINKVRSEDTALYYCARRGFFEGYSAWFAYW
VL: ILMTQTPKFLLVSAGDRVTITCKASQSVSNDVAWYQQKPGQSPSLLIYYASNRNTGVPDRFTGSGYETDFTFTISTVQAEDLAVYFCQQDYTSPWTFGGG
[1]
  effect on MoDC survival: little effect
T cells
  T cell proliferation in mixed lymphocyte reaction: no impact; also recorded: does not reduce T cell proliferation
[2]; 7.84 pM (p=0.0033)
  reduction in total CFUs: Significant reductions
[2]; 32.9 pM
  inhibition of all major CFU subtypes: inhibited
[2]; 39.21 pM (p<0.0001)
  reduction in total CFUs: Significant reductions
[2]; 196.1 pM
  inhibition of all major CFU subtypes: inhibited
[2]; 196.1 pM (p<0.0001)
  reduction in total CFUs: Significant reductions
[3]; 25% HL-60/75% Mino, 25 pM, 96 hours (p=0.0002)
  Mino viability vs Mino only control: significant reduction in viability
[3]; 50% HL-60/50% Mino, 12.5 pM, 96 hours (p=0.0004)
  Mino viability vs Mino only control: significant reduction in viability
[3]; 50% HL-60/50% Mino, 25 pM, 96 hours (p<0.0001)
  Mino viability vs Mino only control: significant reduction in viability
HL-60 cell line; 12 hours exposure
  HL-60 proliferation inhibited: greater than 98%
HL-60 cell line; 24 hours exposure
  HL-60 proliferation inhibition: greater than 99%
HL-60 cell line; 96 hours exposure
  HL-60 proliferation inhibition: greater than 99%
HL-60 cell line; incubation up to 96 hours
  time dependent cytotoxicity: rapid cytotoxicity
HL-60 cell line; within 5 hours of exposure
  viability of HL-60 cells: less than 10%
HEL
  IC50: 0.544 nM
Primary AML; CRGH1 (low CD300f expression), 196.1 pM
  toxicity against primary AML CFU: Significant toxicity
Primary AML; CRGH9 (high CD300f expression), all dose levels (P<0.001)
  toxicity against primary AML CFU: Significant toxicity
Primary AML cells
  AML cells as mean percentage of total cells in BM: 12.32%
  human AML cells in BM, mean total enumeration: 0.37×10^6
